Measured values taken from the supplement of paper PMC9170038.

What was measured:
[1] = tested on: K4 kissing-loop RNA reporter; test: apparent KD of K4 kissing-loop reporter; higher = weaker reporter binding; conditions: Eterna round: R107;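 also: bound reporter read as fluorescence of individual clusters on recovered sequencing chips by microscopy, with normalized cluster intensities fitted with a binding model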
Protocol: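 RNA-MaP round R107: designed RNA switches with theophylline, tryptophan, arginine or FMN aptamers are transcribed on-chip within common flanks. They are titrated with a labelled K4 kissing-loop RNA reporter in RNA-MaP buffer (100 mM Tris pH 7.5, 80 mM KCl, 4 mM MgCl2), without ligand or with the indicated ligand. Median apparent KD per design.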

[2] = tested on: MS2 coat protein; test: apparent KD of MS2 coat protein; designed switch direction (-1 OFF switch, 1 ON switch): -1; higher = weaker reporter binding
Outline: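 The buffer was Tris-HCl pH 7.5 with KCl, MgCl2, BSA, DTT, tRNA and Tween-20. In it, SNAP-549-labelled MS2 coat protein was titrated in doubling steps from 0.7 or 1.5 nM to 3 µM over chip-bound RNA switches transcribed by stalled E. coli RNA polymerase on Illumina chips. Apparent KD is the per-design median over clusters of curve fits to normalised fluorescence.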

[3] = input ligand: theophylline 20 uM
[4] = input ligand: tryptophan 2.4 mM
[5] = input ligand: microRNA oligo, concentration not stated
[6] = Eterna round: R95, input ligand: FMN 200 uM
[7] = Eterna round: R95, input ligand: microRNA oligo, concentration not stated
[8] = Eterna round: R95, input ligand: none

Row | Sequence | apparent KD of K4 kissing-loop reporter ([1]; input ligand: FMN 200 uM) | apparent KD of K4 kissing-loop reporter ([1]; input ligand: arginine 13.2 mM) | apparent KD of K4 kissing-loop reporter ([1]; input ligand: none) | apparent KD of K4 kissing-loop reporter [1, 3] | apparent KD of K4 kissing-loop reporter [1, 4] | further results
1 | AAGAGCCUCAAGAGGCAGUAUCUGCCUCAACGAGGACCGGUACGGCCGCCACUCGAAUAAUAGAGUGAUGUUCUAAGAGGCUCAA [AK8 SS Tryptophan A] | 710 nM | 558 nM | 586 nM | 548 nM | 487 nM | –
2 | AAGAGGUAGGCGGCCGCCACUUGUUGUGAACACAUACGAGCCAGUGAUGUUGGUAUUGUGGGCGGAAGGACCGGGCCUACCUGAA [Exclusion - Tryptophan B (Freestyle 20)] | 317 nM | 304 nM | 320 nM | 328 nM | 386 nM | –
3 | AAGCAGUCACUCGAAAUCAUCAAAGAUGAACGAGGACCGGUACGGCCGCCACUCGGAGUGAUGUUCCGAAGACUGCAAAAUAAAA [MatMod 2 - Jieux - Exclusion - Tryptophan A] | 307 nM | 225 nM | 243 nM | 274 nM | 112 nM | –
4 | AAGCAGUCACUCGAAUCCAUCGAAGAUGGGCGAGGACCGGUACGGCCGCCACUCGGAGUGAUGUUCCAAAGACUGCAAAAUAAAA | 451 nM | 378 nM | 306 nM | 550 nM | 136 nM | –
5 | AAGCAGUCUCUUGUAACCAUCGAAGAUGGACGAGGACCGGUACGGCCGCCACUCGGAGUGAUGUUCCGAAGACUGCAAAAUAAAA [MatMod 15 - Jieux - Exclusion - Tryptophan A] | 713 nM | 712 nM | 828 nM | 1280 nM | 1350 nM | –
6 | AAGCGUAAAAUGGCGGACAUACUGCUCCCACGAGGACCGGUACGGCCGCCACUCGAGUGCGGCAGUGAUGUUGCCGCCUUAGCGU [KL-XTryp-A20] | 92.9 nM | 81.3 nM | 92 nM | 80.3 nM | 81.9 nM | –
7 | AAGGACUGCCAGGGAACACACUCAUUAUGGGAGGAUAUGUUAGCUGACAGAAGGCCCAGUGAUGUUGGGCCGGCGGGCUGUCAGG [Diargean] | 244 nM | 202 nM | 218 nM | 237 nM | 177 nM | –
8 | AAGGCACGGCUUCGGCCGUGCCAAAUAGAUACCAGCAUAAUAAUAUGCCCUUGGCAGCUAAAUAGAAAUUCAGUGAUGUUGGAUA [SS Theo A Tesla 2.1] | 597 nM | 444 nM | 601 nM | 586 nM | 649 nM | –
9 | AAGUAGAUCAAGAUCUAGUAUCUAGAUCAACGAGGACCGGUACGGCCGCCACUCGAAUAAUAGAGUGAUGUUCUAAGAUCUACAA [AK1.4 SS Tryptophan A] | 898 nM | 716 nM | 994 nM | 968 nM | 445 nM | –
10 | AAGUCUCGUUAAUUCGUGGUUUCGAUCGAUACCAGUAGCGAGAGGUACCCUUGGCAGCGAAAUGAGUGAUGUUCAUGAAAGAAGA [KL-XTheoA11] | 101 nM | 124 nM | 111 nM | 153 nM | 87.1 nM | –
11 | AAGUGAUGUUGUAGUGAUGUUGUGAUGUUGCAGGAUAUAUAGUGAUGUAGAAGGGUAAGUACUGAUGUUGUUAGUGAGUGAUGUU [wwzrrmullin] | 111 nM | 49.8 nM | 87.9 nM | 81.1 nM | 86.6 nM | –
12 | UUUUUAGAUGAAGGAUAUACUUAACAUGAGGAUCACCCAUGUGGUGUUGUGAGUGAGUGAGUUUAGUAGAAGGUCAAUUAUUUU [JMF's solution 21] (Eterna round: R96, puzzle: Exclusion NG 2) | – | – | – | – | – | apparent KD of MS2 coat protein ([2]; input ligand: FMN 200 uM): 187 nM; apparent KD of MS2 coat protein [2, 5]: 151 nM; apparent KD of MS2 coat protein ([2]; input ligand: none): 260 nM
13 | UUUUUAGUGCUUUUUAAGUACAUGAGGAUCACCCAUGUACUUGUCUGGUGGUCCGGACAAGCUUUUUGCUCGUCUAC [Sensor v3 - turn-off variant 1 - 2] (puzzle: Sensor v3, turn-off variant 1) | – | – | – | – | – | apparent KD of MS2 coat protein [2, 6]: 49.5 nM; apparent KD of MS2 coat protein [2, 7]: 30.5 nM; apparent KD of MS2 coat protein [2, 8]: 54.3 nM
14 | UUUUUAGUGCUUUUUAAGUACAUGAGGAUCACCCAUGUACUUGUCUGGUGGUCCGGACAAGCUUUUUGCUCGUCUAG [Sensor v3 - turn-off variant 1 - 3] (Eterna round: R96, puzzle: Sensor v3, turn-off variant 1) | – | – | – | – | – | apparent KD of MS2 coat protein ([2]; input ligand: FMN 200 uM): 35.6 nM; apparent KD of MS2 coat protein [2, 5]: 27.4 nM; apparent KD of MS2 coat protein ([2]; input ligand: none): 35.8 nM
15 | UUUUUAGUGCUUUUUAAGUACAUGAGGAUCACCCAUGUACUUGUCUGGUGGUCCGGACAAGCUUUUUGCUCGUCUAG [Sensor v3 - turn-off variant 1 - 3] (puzzle: Sensor v3, turn-off variant 1) | – | – | – | – | – | apparent KD of MS2 coat protein [2, 6]: 32.4 nM; apparent KD of MS2 coat protein [2, 7]: 29.4 nM; apparent KD of MS2 coat protein [2, 8]: 36.4 nM
16 | UUUUUAUAUGAAGGAUAUACUUAACAUGAGGAUCACCCAUGUGGUGUUGUGAGUGAGUGAGUUUAGUAGAAGGUCAAUUAGCUU [JMF's solution 100] (Eterna round: R96, puzzle: Exclusion NG 2) | – | – | – | – | – | apparent KD of MS2 coat protein ([2]; input ligand: FMN 200 uM): 330 nM; apparent KD of MS2 coat protein [2, 5]: 185 nM; apparent KD of MS2 coat protein ([2]; input ligand: none): 342 nM
17 | UUUUUGUCAGGAUAUGACUAGAUGCACGUUAGUGCAUCUACUUAGAAGGGACAUGAGGAUCACCCAUGUAUUCC [Bring Us a Shrubbery-12] (puzzle: Exclusion 4) | – | – | – | – | – | apparent KD of MS2 coat protein [2, 7]: 27.3 nM
18 | UUUUUGUCAGGAUAUGAUUAGAUCUACUUCGGUAGAUCUAAUCAGAAGGGACAUGAGGAUCACCCAUGUAGUUU [Ex4 - 3 - 12] (puzzle: Exclusion 4) | – | – | – | – | – | apparent KD of MS2 coat protein [2, 7]: 35.2 nM
19 | UUUUUGUCAGGAUAUGAUUAGAUCUACUUCGGUAGAUCUAAUCAGAAGGGACAUGAGGAUCACCCAUGUAGUUU [Mod of Brourd - Jieux - Exclusion 4] (Eterna round: R97, puzzle: Exclusion 4) | – | – | – | – | – | apparent KD of MS2 coat protein ([2]; input ligand: FMN 200 uM): 311 nM; apparent KD of MS2 coat protein ([2]; input ligand: none): 55.8 nM
20 | UUUUUGUGAGGAUAUCAGUAGUAGAACAAUAGUACUACUACUGAGAAGGCACAUGAGGAUCACCCAUGUUCCUC [Fiskers Ex 4 Super stable 44 mod 9] (puzzle: Exclusion 4) | – | – | – | – | – | apparent KD of MS2 coat protein [2, 7]: 52.6 nM
21 | UUUUUGUGAGGAUAUCAGUAGUAGAACAAUAGUACUACUACUGAGAAGGCACAUGAGGAUCACCCAUGUUUCUC [Fiskers Ex 4 Super stable 44 mod 10] (puzzle: Exclusion 4) | – | – | – | – | – | apparent KD of MS2 coat protein [2, 7]: 43.3 nM
